In the supplement of paper PMC7125110:
± gives the standard error. For part of these data: This sample holds only a part of the variants without activity.

B1: glmS ribozyme (parent)
chain: AUAAAAGCGCCAGAACUACAGAAAUGUAGUUGACGAGGAGGAGGUUUAUCGAAUUUUCGGCGGAUGCCUCCAAA

Tests used:
Settings in all cases: with glucosamine-6-phosphate
glucosamine-6-phosphate [1] = variants of: B1; assay: kcat; higher = faster cleavage; RNA array
Summary of the method: (§1)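 On sequenced MiSeq chips, barcoded ribozyme variants were made in situ by E. coli RNA polymerase and followed at 37 °C through a hybridised Cy3 probe. Glucosamine-6-phosphate was flowed in at 40 μM to 10 mM in HEPES/KCl/Mg(OAc)2 buffer. Exponential fits to normalised per-tile medians gave kobs, and weighted Michaelis–Menten fits gave kcat and KM.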

glucosamine-6-phosphate [2] = variants of: B1; assay: KM; higher = weaker cofactor use; RNA array
Summary of the method: as §1

glucosamine-6-phosphate [3] = variants of: B1; assay: self-cleavage kobs at 40 uM GlcN6P; higher = faster cleavage; RNA array
Summary of the method: as §1

glucosamine-6-phosphate [4] = variants of: B1; assay: self-cleavage kobs at 160 uM GlcN6P; higher = faster cleavage; RNA array
Summary of the method: as §1

glucosamine-6-phosphate [5] = variants of: B1; assay: self-cleavage kobs at 640 uM GlcN6P; higher = faster cleavage; RNA array
Summary of the method: as §1

glucosamine-6-phosphate [6] = variants of: B1; assay: self-cleavage kobs at 2500 uM GlcN6P; higher = faster cleavage; RNA array
Summary of the method: as §1

glucosamine-6-phosphate [7] = variants of: B1; assay: self-cleavage kobs at 10000 uM GlcN6P; higher = faster cleavage; RNA array
Summary of the method: as §1

Variant: C11A G59U
- kcat (glucosamine-6-phosphate [1]): 0.0133 ± 0.0031 s⁻¹
- KM (glucosamine-6-phosphate [2]): 2310 ± 700 µM
- self-cleavage kobs at 40 uM GlcN6P (glucosamine-6-phosphate [3]): 0.000273 ± 2.8e-05 s⁻¹
- self-cleavage kobs at 160 uM GlcN6P (glucosamine-6-phosphate [4]): 0.000683 ± 8.7e-05 s⁻¹
- self-cleavage kobs at 640 uM GlcN6P (glucosamine-6-phosphate [5]): 0.00335 ± 0.00043 s⁻¹
- self-cleavage kobs at 2500 uM GlcN6P (glucosamine-6-phosphate [6]): 0.00743 ± 0.0012 s⁻¹
- self-cleavage kobs at 10000 uM GlcN6P (glucosamine-6-phosphate [7]): 0.0105 ± 0.0013 s⁻¹

Variant: G29C U47A
- kcat (glucosamine-6-phosphate [1]): 0.00173 ± 0.00071 s⁻¹
- self-cleavage kobs at 40 uM GlcN6P (glucosamine-6-phosphate [3]): 4.95e-05 ± 1.1e-05 s⁻¹
- self-cleavage kobs at 160 uM GlcN6P (glucosamine-6-phosphate [4]): 7.89e-05 ± 1.6e-05 s⁻¹
- self-cleavage kobs at 640 uM GlcN6P (glucosamine-6-phosphate [5]): 0.000293 ± 3.8e-05 s⁻¹
- self-cleavage kobs at 2500 uM GlcN6P (glucosamine-6-phosphate [6]): 0.000579 ± 8.4e-05 s⁻¹
- self-cleavage kobs at 10000 uM GlcN6P (glucosamine-6-phosphate [7]): 0.00158 ± 0.0002 s⁻¹

Variant: U54C U57G
- kcat (glucosamine-6-phosphate [1]): 0.000492 ± 1.5e-05 s⁻¹
- self-cleavage kobs at 10000 uM GlcN6P (glucosamine-6-phosphate [7]): 6.43e-05 ± 1.1e-05 s⁻¹

Variant: G40U U46G
- kcat (glucosamine-6-phosphate [1]): 0.00101 ± 0.00013 s⁻¹
- KM (glucosamine-6-phosphate [2]): 1860 ± 390 µM
- self-cleavage kobs at 40 uM GlcN6P (glucosamine-6-phosphate [3]): 2.93e-05 ± 1.4e-05 s⁻¹
- self-cleavage kobs at 160 uM GlcN6P (glucosamine-6-phosphate [4]): 7.71e-05 ± 1.5e-05 s⁻¹
- self-cleavage kobs at 640 uM GlcN6P (glucosamine-6-phosphate [5]): 0.000242 ± 3.9e-05 s⁻¹
- self-cleavage kobs at 2500 uM GlcN6P (glucosamine-6-phosphate [6]): 0.000669 ± 8.8e-05 s⁻¹
- self-cleavage kobs at 10000 uM GlcN6P (glucosamine-6-phosphate [7]): 0.000785 ± 0.00012 s⁻¹

Variant: A52G C58A
- kcat (glucosamine-6-phosphate [1]): 4.08e-05 ± 7.3e-06 s⁻¹
- self-cleavage kobs at 2500 uM GlcN6P (glucosamine-6-phosphate [6]): 4.01e-05 ± 9.9e-06 s⁻¹
- self-cleavage kobs at 10000 uM GlcN6P (glucosamine-6-phosphate [7]): 3.55e-05 ± 9.9e-06 s⁻¹

Variant: G29U C58A
- kcat (glucosamine-6-phosphate [1]): 0.000289 ± 9.9e-05 s⁻¹
- self-cleavage kobs at 160 uM GlcN6P (glucosamine-6-phosphate [4]): 3.39e-05 ± 1.2e-05 s⁻¹
- self-cleavage kobs at 640 uM GlcN6P (glucosamine-6-phosphate [5]): 5.13e-05 ± 1e-05 s⁻¹
- self-cleavage kobs at 2500 uM GlcN6P (glucosamine-6-phosphate [6]): 0.000103 ± 1e-05 s⁻¹
- self-cleavage kobs at 10000 uM GlcN6P (glucosamine-6-phosphate [7]): 0.000231 ± 3e-05 s⁻¹

Variant: G29U C58G
- kcat (glucosamine-6-phosphate [1]): 8.52e-05 ± 7.7e-06 s⁻¹
- KM (glucosamine-6-phosphate [2]): 752 ± 370 µM
- self-cleavage kobs at 640 uM GlcN6P (glucosamine-6-phosphate [5]): 3.31e-05 ± 1.6e-05 s⁻¹
- self-cleavage kobs at 2500 uM GlcN6P (glucosamine-6-phosphate [6]): 8.3e-05 ± 1.9e-05 s⁻¹
- self-cleavage kobs at 10000 uM GlcN6P (glucosamine-6-phosphate [7]): 7.67e-05 ± 9.9e-06 s⁻¹

Variant: A14C U55C
- kcat (glucosamine-6-phosphate [1]): 0.00399 ± 0.0011 s⁻¹
- KM (glucosamine-6-phosphate [2]): 1800 ± 660 µM
- self-cleavage kobs at 40 uM GlcN6P (glucosamine-6-phosphate [3]): 8.57e-05 ± 1.1e-05 s⁻¹
- self-cleavage kobs at 160 uM GlcN6P (glucosamine-6-phosphate [4]): 0.000312 ± 7.6e-05 s⁻¹
- self-cleavage kobs at 640 uM GlcN6P (glucosamine-6-phosphate [5]): 0.00122 ± 0.00015 s⁻¹
- self-cleavage kobs at 2500 uM GlcN6P (glucosamine-6-phosphate [6]): 0.00171 ± 0.00035 s⁻¹
- self-cleavage kobs at 10000 uM GlcN6P (glucosamine-6-phosphate [7]): 0.00439 ± 0.00076 s⁻¹

Variant: C11A A36U G37C
- kcat (glucosamine-6-phosphate [1]): < 1e-05 s⁻¹
- self-cleavage kobs at 40 uM GlcN6P (glucosamine-6-phosphate [3]): < 1e-05 s⁻¹

Variant: A6U C58U C70G
- kcat (glucosamine-6-phosphate [1]): 1.51e-05 ± 4.3e-06 s⁻¹

Variant: A15C U31G
- kcat (glucosamine-6-phosphate [1]): 0.00453 ± 0.0018 s⁻¹
- self-cleavage kobs at 40 uM GlcN6P (glucosamine-6-phosphate [3]): 8.5e-05 ± 3.2e-05 s⁻¹
- self-cleavage kobs at 160 uM GlcN6P (glucosamine-6-phosphate [4]): 0.000187 ± 5.2e-05 s⁻¹
- self-cleavage kobs at 2500 uM GlcN6P (glucosamine-6-phosphate [6]): 0.00159 ± 0.00063 s⁻¹
- self-cleavage kobs at 10000 uM GlcN6P (glucosamine-6-phosphate [7]): 0.00376 ± 0.0012 s⁻¹

Variant: A15U G32C
- kcat (glucosamine-6-phosphate [1]): 0.000139 ± 7.8e-06 s⁻¹
- KM (glucosamine-6-phosphate [2]): 2550 ± 370 µM
- self-cleavage kobs at 640 uM GlcN6P (glucosamine-6-phosphate [5]): 3.14e-05 ± 7.2e-06 s⁻¹
- self-cleavage kobs at 2500 uM GlcN6P (glucosamine-6-phosphate [6]): 6.49e-05 ± 8.6e-06 s⁻¹
- self-cleavage kobs at 10000 uM GlcN6P (glucosamine-6-phosphate [7]): 0.000112 ± 9.6e-06 s⁻¹

Variant: A52G A53U
- kcat (glucosamine-6-phosphate [1]): 0.000266 ± 2.2e-05 s⁻¹
- KM (glucosamine-6-phosphate [2]): 1900 ± 430 µM
- self-cleavage kobs at 640 uM GlcN6P (glucosamine-6-phosphate [5]): 6.4e-05 ± 1.5e-05 s⁻¹
- self-cleavage kobs at 2500 uM GlcN6P (glucosamine-6-phosphate [6]): 0.000176 ± 3.4e-05 s⁻¹
- self-cleavage kobs at 10000 uM GlcN6P (glucosamine-6-phosphate [7]): 0.000219 ± 2.3e-05 s⁻¹

Variant: A15U U69G
- kcat (glucosamine-6-phosphate [1]): 5.2e-05 ± 1.9e-05 s⁻¹
- self-cleavage kobs at 160 uM GlcN6P (glucosamine-6-phosphate [4]): 4.3e-05 ± 1.3e-05 s⁻¹
- self-cleavage kobs at 2500 uM GlcN6P (glucosamine-6-phosphate [6]): 6.85e-05 ± 2.1e-05 s⁻¹

Variant: G41A G66C
- kcat (glucosamine-6-phosphate [1]): 3.76e-05 ± 1.2e-06 s⁻¹
- KM (glucosamine-6-phosphate [2]): 1410 ± 200 µM
- self-cleavage kobs at 2500 uM GlcN6P (glucosamine-6-phosphate [6]): 2.49e-05 ± 1.2e-05 s⁻¹
- self-cleavage kobs at 10000 uM GlcN6P (glucosamine-6-phosphate [7]): 3.27e-05 ± 9.4e-06 s⁻¹

Variant: U57C U69G
- kcat (glucosamine-6-phosphate [1]): 2.77e-05 ± 6.2e-06 s⁻¹
- self-cleavage kobs at 160 uM GlcN6P (glucosamine-6-phosphate [4]): 3.31e-05 ± 1.4e-05 s⁻¹
- self-cleavage kobs at 640 uM GlcN6P (glucosamine-6-phosphate [5]): 3.38e-05 ± 1.3e-05 s⁻¹

Variant: G43C A53G C68U
- kcat (glucosamine-6-phosphate [1]): 0.00152 ± 0.00074 s⁻¹
- self-cleavage kobs at 40 uM GlcN6P (glucosamine-6-phosphate [3]): 5.01e-05 ± 1.4e-05 s⁻¹
- self-cleavage kobs at 160 uM GlcN6P (glucosamine-6-phosphate [4]): 0.000102 ± 2.7e-05 s⁻¹
- self-cleavage kobs at 640 uM GlcN6P (glucosamine-6-phosphate [5]): 0.000435 ± 0.00011 s⁻¹
- self-cleavage kobs at 2500 uM GlcN6P (glucosamine-6-phosphate [6]): 0.000879 ± 0.00022 s⁻¹
